Reference: paper PMC5099905

Target: E-cadherin (canine (endogenous in MDCK))
Experiment: co-IP; 1 mg MDCK lysate (RIPA buffer) from Mock or DDR1-knockdown (Sh-DDR1) cells, incubated overnight at 4 °C with 1 μg anti-E-cadherin antibody, protein G-sepharose beads; immunoblot with anti-clathrin heavy chain; control antibody as negative control

fold increase of the clathrin/E-cadherin co-IP ratio, Sh-DDR1 cells against Mock cells: 3.5 fold
Substance: clathrin heavy chain (natural protein)
